Assay results published in US20230331821A1 (VIR BIOTECHNOLOGY, published 2023).
Like-named read-outs stand apart in the source and are kept apart here.

How the values were obtained:
[1] = molecular target: T1, SARS-CoV-2 Spike (S) protein, strain BetaCoV/Wuhan-Hu-1/2019, full length (SARS-CoV-2 Wuhan-Hu-1, UniProt P0DTC2 14-1273); test: flow cytometry, ExpiCHO cells expressing SARS-CoV-2 S; % positive cells
[2] = molecular target: T2, His-tagged RBD of SARS-CoV-2 (SARS-CoV-2 BetaCoV/Wuhan-Hu-1/2019, UniProt P0DTC2 331-550)
[3] = molecular target: T3, His-tagged RBD of SARS-CoV-1 (SARS-CoV-1, UniProt P59594 306-527)
[4] = molecular target: T1, SARS-CoV-2 Spike (S) protein, strain …
[5] = molecular target: SARS-CoV-1 Spike (S) protein, strain SARS, on ExpiCHO cells (SARS-CoV (SARS-CoV-1), strain SARS, UniProt P59594 14-1255); test: flow cytometry, ExpiCHO cells expressing SARS-CoV-1 S; % positive cells
[6] = molecular target: T1, SARS-CoV-2 Spike (S) protein, strain …; test: cell-based or functional assay
[7] = molecular target: T4, SARS-CoV-1 RBD (Sino Biological) (SARS-CoV-1, UniProt P59594 306-527); test: ELISA, antigen coated on the plate, OD 405 nm
[8] = molecular target: T1, SARS-CoV-2 Spike (S) protein, strain …; test: cell-based or functional assay; remark: listed apart in the source
[9] = molecular target: T2, His-tagged RBD of SARS-CoV-2; remark: listed apart in the source
[10] = molecular target: T3, His-tagged RBD of SARS-CoV-1; remark: listed apart in the source
[11] = molecular target: SARS-CoV-2 RBD (produced in house in Expi-CHO cells; residues 331-550 of spike) (SARS-CoV-2 BetaCoV/Wuhan-Hu-1/2019, UniProt P0DTC2 331-550); test: BLI (Octet), antibody on protein A sensors, RBD in solution, global fit
[12] = molecular target: T4, SARS-CoV-1 RBD (Sino Biological); test: as above
[13] = molecular target: T4, SARS-CoV-1 RBD (Sino Biological); test: ELISA, antigen coated on the plate, OD 405 nm; remark: listed apart in the source

B1: S315 recombinant IgG1 (antibody, V domains shown)
VH: EVQLVESGGGLVQPGGSLRLSCAASGFTFSNYWMTWVRQAPGKGLEWVANIKQDGSEKYYVDSVKGRFTISRDNAKNSLYLQMNSLRAEDTAVYYCARDLWWNDQAHYYGMDVWGQGTTVTVSS
VL: SYELTQPPSVSVSPGQTARITCSGDAFPNQYAYWYQQKPGQAPVMLIYKDSERPSGIPERFFGSSSGTTVTLTIRGVQAEDEADYYCQSADSSGTVFGGGTKLTVL
With B1 the “EC50 (read off the curve)” value [1] was ~300 ng/mL, the Kd [2] was 0.811 nM and the Kd [3] was < 1 pM. For the same binder, the EC50 [4] was 0.343 µg/mL, the “EC50 (read off the curve)” value [5] was ~7 ng/mL and the “IC50, neutralization of SARS-CoV-2pp on DBT-ACE2 cells” value [6] was 25.1 µg/mL.

B2: S306-rIgG1-LS (antibody, V domains shown)
VH: QVQLVQSGAEVKKPGASVKVSCKASTYTFTSFGISWVRQAPGQGLEWMGWITTYSGDTNYAQKFQGRVTMTTDTSTNTAYMELRSLRSDDTAVYYCASDYFDSSGYYHSFDYWGQGTLVTVSS
VL: EIVLTQSPDTLSLSPGERATLSCRASQSVSSYLAWYQQRPGQAPRLLIYDASKRATGIPARFSGSGSGTDFTLTISSLEPEDFAVYYCQQRSNWPPGCSFGQGTKVEIK
B2: no binding (tested: 5 µg/ml) [7].

B3: S304 rIgG1 (antibody, V domains shown)
VH: EVQLVESGGGLVQPGGSLRLSCAASGFTFSSYDMHWVRQTTGKGLEWVSTIGTAGDTYYPDSVKGRFTISREDAKNSLYLQMNSLRAGDTAVYYCARGDSSGYYYYFDYWGQGTLLTVSS
VL: DIQMTQSPSSLSAAVGDRVTITCRASQSIGSYLNWYQQKPGKAPKLLIYAASSLQSGVPSRFSGSGSGTDFTLTISSLQPEDFAIYYCQQSYVSPTYTFGPGTKVDIK
With B3 the “EC50 (read off the curve)” value [1] was ~100 ng/mL, the “IC50, neutralization of SARS-CoV-2pp on DBT-ACE2 cells” value [8] was ~16.9 µg/mL and the Kd [9] was 4.58 nM. It also gave a Kd [10] of 0.869 nM, an EC50 [4] of 0.142 µg/mL and a Kd [11] of 4.58 nM. For the same binder, the Kd [12] was 0.869 nM and the “EC50 (read off the curve)” value [5] was ~10 ng/mL.

B4: S310-rIgG1-LS (antibody, V domains shown)
VH: QVQLVQSGAELKKPGSSVKVSCKASGGTFNSYSFNWVRQAPGQGLEWLGGIIPVLGTSNYAQKFQGRVAVTADEFTTTAYMELSSLRSEDTAVYYCATRTYDSSGYRPYYYGLDVWGQGTPVTVSS
VL: QSALTQPASVSGSPGQSITISCTGTSSDVGSYNLVSWYQQRPGKAPELMIYEVTKRPSGLSNRFSGSKSGNTASLTISGLQAEDEADYYCCSYAGSDTVIFGGGTKVTVL
B4: no binding (tested: 5 µg/ml) [13].
